# Patent US20220112288A1 (published 2022)
# Target: T1, Recombinant human CD4 (R&D Systems, Cat. 10327-CD) (human, UniProt P01730 26-390, limits assumed)
# T1 construct: Soluble analyte in the Octet assay
# Assay: BLI Octet, mAb on anti-mouse Fc sensor, CD4 100/50/25 nM, 1:1 global fit;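 also: antibodies loaded at 10 µg/mL, an unrelated mouse-derived antibody served as internal reference control, association and dissociation phases fitted after Savitzky-Golay smoothing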
# Description: A three-point, 1:1 serial dilution of human and rhesus CD4 proteins were prepared using kinetics buffer as diluent. […] 10 mM Glycine pH 1.7, and kinetics buffer were used to regenerate the AMC biosensors. […] An irrelevant antibody derived from the Alivamab mouse was included in the assay as an internal reference control.
# After completion of the kinetic characterization assays, data was analyzed in Forte Bio analysis software v11. The Y-axis was aligned to the final 5 seconds of the baseline step, with inter-step alignment to the dissociation step. Savitzky-Golay Filtering was used to smooth the data. Kinetic curves were fit to both association and dissociation steps using a 1:1 stoichiometry model.
Binder,Kd,Response,koff,kon
"75110_03I08A (antibody, V domains shown, Tested as antibody purified from AlivaMab Mouse hybridoma supernatant (captured by anti-mouse IgG Fc)) VH: QVQLQESGPGLVKPSETLSLTCTVSGGSISSYYWSWIRQPPGKGLEWIGYIYYSGSTNYNPSLKSRVTISVDTSKNQFSLKLSSVTAADTAVYYCAREGEQWFYGLDVWGQGTTVTVSS VL: EIVLTQSPGTLSLSPGERATLSCRASQSVSSTYLAWYQQKPGQAPRLLIYGSSSRATGIPDRFSGSGSGTDFTLTISRLEPEDFAVYYCQQYGNSFPITFGQGTRLEIK",8.8 nM,0.14,0.0011 s⁻¹,130000 M⁻¹ s⁻¹
"75110_04G02A (antibody, V domains shown, Tested as antibody purified from AlivaMab Mouse hybridoma supernatant (captured by anti-mouse IgG Fc)) VH: not shown VL: DIVMTQSPDSLAVSLGERATINCKSSQSVLYSSNNKNYLAWYQQKPGQPPKLLFYWASARESGVPDRFSGSGSGTDFTLTISSLQAEDVALYYCQQYFGSFPTFGQGTKLEIK",16 nM,0.17,0.0015 s⁻¹,90000 M⁻¹ s⁻¹
"75110_02K11A (antibody, V domains shown, Tested as antibody purified from AlivaMab Mouse hybridoma supernatant (captured by anti-mouse IgG Fc)) VH: QVQLQESGPGLVKPSQTLSLTCTVSGGSISSGFYYWTWIRQHPGKGLEWIGYISYSGNTYYNPSFKSRLTISVDTSKSQFSLKLSSVTAADTAVYYCARDRPSNFDAFDIWGQGTMVTVSS VL: not shown",19 nM,0.11,0.0014 s⁻¹,74000 M⁻¹ s⁻¹
"75110_04G16A (antibody, V domains shown, Tested as antibody purified from AlivaMab Mouse hybridoma supernatant (captured by anti-mouse IgG Fc)) VH: QVQLQESGPGLVKPSQTLSLTCTVSGDSISSGYYYWSWIRQHPGKGLEWIGYISYSGSTYYNPSLKSRLTISVNTSKNQFSLKLSSLTAADTAVYYCARDRPSNFDAFDIWGQGTMVTVSS VL: EIVLTQSPGTLSLSPGERATLSCRASQSVGSTYLAWYQQKPGQAPRLLIYGAFSRATGIPDRFSGSGSGTDFTLTISRLEPEDFAVYYCQQYGSSPLTFGPGTKVDIK",5.3 nM,0.23,0.00047 s⁻¹,89000 M⁻¹ s⁻¹
"75110_05B13A (antibody, V domains shown, Tested as antibody purified from AlivaMab Mouse hybridoma supernatant (captured by anti-mouse IgG Fc)) VH: QVLLEQWGAGLLKPSETLSLTCAVYGGSFSGYYWTWIRQPPGKGLEWIGEINHRGSTNYNPSLKSRVTISIDTSKNQFSLKVKSVTAADTAMYYCTRPDSNWFDPWGQGTLVTVSS VL: DIQMTQSPSSVSASVGDRVTITCRASQDISNWLAWYQQKPGKAPKLLIFAASSLQSGVPSRFSGSGSGTDFTLTISSLQPEDFATYYCQQANSFPLTFGGGTKVEIK",5.4 nM,0.28,0.00058 s⁻¹,110000 M⁻¹ s⁻¹
"75110_05G15A (antibody, V domains shown) VH: QVQLQESGPGLVKPSQTLSLTCTVSGGSISSGGYFWSWIRQHPGKGLEWIGCIYYSGSTYYIPSLKSRVTISVDTSKNQFSLKLRSVTAADTAVYYCARDGYDYWYFDLWGRGTLVTVSS VL: not shown",13 nM,0.09,0.0022 s⁻¹,170000 M⁻¹ s⁻¹
"75110_01J09A (antibody, V domains shown, Tested as antibody purified from AlivaMab Mouse hybridoma supernatant (captured by anti-mouse IgG Fc)) VH: EVQLVESGGGLVQPGGSLRLSCVASGFTFSSYWMSWVRQAPGKGLEWVANTKEDGSDKYYVDSVKGRFTICRDNAKNSLYLQMNSLRAEDTAVYYCAREGGQWLALDYWGQGTLVTVSS VL: DIQMTQSPSSVSASVGDRVTINCRASQGISSWLAWYQQKPGKAPNLLIFGASSLQSGVPSRFSGSGFGTDFSLTITTLQPEDFATYHCQQANSFPWTFGQGTKVEIK",130 nM,0.12,0.0048 s⁻¹,37000 M⁻¹ s⁻¹
"75110_05A11A (antibody, V domains shown, Tested as antibody purified from AlivaMab Mouse hybridoma supernatant (captured by anti-mouse IgG Fc)) VH: EVQLVESGGGLVKPGGSLTLSCAASGFTFSNTWMSWVRQAPGKGLEWVGRIKSKIDGGTTDYAAPVKGRFTISRDDSKNTLYLQMNSLKTEDTAVYYCTTSGTYSSGWGLFDYWGQGTLVTVSS VL: DIQMTQSPSSLSASVGDRVTITCQASQDISNYLNWYQQKPGKAPKLLIYDTSNLEAGVPSRFSGSGSGTHFTLTISSLQPEDIATYYCQQYDNLPFTFGGGTRVEIK",18 nM,0.27,0.0018 s⁻¹,97000 M⁻¹ s⁻¹
"75110_02E22A (antibody, V domains shown, Tested as antibody purified from AlivaMab Mouse hybridoma supernatant (captured by anti-mouse IgG Fc)) VH: QVQLQESGPGLVKPSETLSLTCTVSGGSISSFYWSWIRQPAGKGLEWIGRIYTSGSTNYNPSLKSRVTMSVDTSKNQFSLKLSSVTAADTAVYYCARELEKRNYYGMDVWGQGTTVTVSS VL: DIQMTQSPSSLSASVGDRVTITCQASHDISNYLNWYQQKPGKAPKLLIFDASTLETGVPSRFSGSGSGTYFTFTIRSLQPEDIATYYCQQYDSLPLTFGGGTKVEIK",50 nM,0.16,0.0031 s⁻¹,63000 M⁻¹ s⁻¹
"75110_04D20A (antibody, V domains shown, Tested as antibody purified from AlivaMab Mouse hybridoma supernatant (captured by anti-mouse IgG Fc)) VH: QVQLQESGPGLVKPSETLSLTCTVSNGSISDYYWSWIRQPAGKGLEWIGRIYTSGSTNYNPSLKSRITMSVDTSKNQFSLELSSVTAADTAVYYCARELERYYFYGVDVWGQGTTVTVSS VL: not shown",8.9 nM,0.14,0.0008 s⁻¹,90000 M⁻¹ s⁻¹
"75110_04B08A (antibody, V domains shown, Tested as antibody purified from AlivaMab Mouse hybridoma supernatant (captured by anti-mouse IgG Fc)) VH: QVQLVESGGGVVQPGRSLRLSCTASGFNFINYGIHWVRQAPGKGLEWVTIIWYDGSKKYYADSVKGRFAISRDNSKNTLYLQMNSLRAEDTAVYYCAREDDWNDGLAYWGQGTLVTVSS VL: AIQMTQSPSSLSASVGDRVTITCRASQDIRNDLGWYQQKPGKAPNLLIYAASNLQSGVPSRFSGSGSGTDFTLTISSLQPEDFATYYCLQDSNYPRTFGQGTKVEIK",17 nM,0.25,0.0037 s⁻¹,220000 M⁻¹ s⁻¹

# These reach a lower Kd. Values come first.
Kd,Response,koff,kon,Binder
4.1 nM,0.19,0.0016 s⁻¹,390000 M⁻¹ s⁻¹,"75110_01L08A (antibody, V domains shown, Tested as antibody purified from AlivaMab Mouse hybridoma supernatant (captured by anti-mouse IgG Fc)) VH: QVQLQESGPGLVKPSETLSLTCTVSGGSISHYYWSWIRQPPGKGLEWIGYIHYSGTTNYNPSLKSRVTISVDTSKNQLSLKLRSVTAADTAVYYCARDQGFSSGGMDVWGQGTTVTVSS VL: not shown"
3.5 nM,0.22,0.0004 s⁻¹,120000 M⁻¹ s⁻¹,"75110_02I16A (antibody, V domains shown, Tested as antibody purified from AlivaMab Mouse hybridoma supernatant (captured by anti-mouse IgG Fc)) VH: QVQLQQWGAGLLKPSETLSLTCDVYGGSFSGYYWTWIRQPPGKGLEWIGEINHSGTTNSNPSLKSRVTISVDTSKSQFSLRLSSVTAADTAVYFCTRELNWFDPWGQGTLVTVSS VL: DIQMTQSPSSVSASVGDRVTITCRASQDIANWLAWYQQKPGKAPQLLIYAASSLLGGVPSRFSGSGSGADFTLTISSLHPEDFATYYCQQANSFPYTFGQGTKLEIK"
3 nM,0.23,0.0004 s⁻¹,140000 M⁻¹ s⁻¹,"75110_03C01A (antibody, V domains shown, Tested as antibody purified from AlivaMab Mouse hybridoma supernatant (captured by anti-mouse IgG Fc)) VH: QVQLQQWGAGLLKPSETLSLTCAVYGGSFSGYYWSWIRQSPGKGLEWIGEINQSGSTNYNPSLKSRVTISVDTSKDQFSLKLSSVTAADTAVYYCARVINWFDSWGQGSLVTVSS VL: DIQMTQSPSSVSASVGDRVTITCRASQGISSWLAWYQQKPGNAPKLLIYDASSFQSGVPSRFSGSGSGTDFTLTISSLQTEDFATYYCQQANSFPYTFGQGTKLEIK"
3.6 nM,0.23,0.0005 s⁻¹,140000 M⁻¹ s⁻¹,"75110_04P08A (antibody, V domains shown, Tested as antibody purified from AlivaMab Mouse hybridoma supernatant (captured by anti-mouse IgG Fc)) VH: QVQLQQWGAGLLKPSETLSLTCAVYGGSLSGYYWSWIRQSPGKGLEWIGEINQSGSTNYNPSLKSRVTISVDTSKDQFSLRLTSVTAADTAVYYCTRVLNWFDPWGRGTLVTVSS VL: DIQMTQSPSSVSASVGDRVTLTCRASQDISNWLAWYQQKPGKAPKLLIYAASSLQSGVPSRFSGSGSGTDFTLTISSLQTEDFATYYCQQANSFPYTFGQGTKLEIK"
2.2 nM,0.11,0.00061 s⁻¹,280000 M⁻¹ s⁻¹,"75110_02E08A (antibody, V domains shown, Tested as antibody purified from AlivaMab Mouse hybridoma supernatant (captured by anti-mouse IgG Fc)) VH: QVQLQESGPGLVKPSETLSLTCTVSGGSISTYYWTWIRQPAGKGLEWIGRVYTSGDTNYNPSLKSRVAMSLDTSKNQFSLKLSSVTAADTAVYYCARDSGALYSWNYGDAFDIWGQGTMVTVSS VL: DIQMTQSPSAMSASVGDRVTITCRASQDISNYLAWFQQKPGKVPKRLIYAASSLQSGVPSRFSGSGSGTEFTLTISSLQPEDFATYYCLQHNSYPRTFGQGTKVEIK"
< 0.001 nM,0.18,< 1e-07 s⁻¹,34000 M⁻¹ s⁻¹,"75110_05E05A (antibody, V domains shown, Tested as antibody purified from AlivaMab Mouse hybridoma supernatant (captured by anti-mouse IgG Fc)) VH: QVQLQESGPGLVKPSETLSLTCTVSGGSIGSYYWSWIRQPAGKGLEWIGRIYTSGSTNYNPSLKSRVTMSFDTSKNQFSLKLNSVTAADTAVYYCATDGGVGDSLDYWGQGTLVTVSS VL: DIVMTQTPLSLPVTPGEPASISCRSSQSLLDSDDGNTYLDWYLQKPGQSPQLLIYTLSYRASGVPDRFSGSGSGTDFTLKISRVEAEDVGVYYCMQHIEFPFTFGPGTKVDIK"
2.2 nM,0.37,0.00022 s⁻¹,100000 M⁻¹ s⁻¹,"75110_05E13A (antibody, V domains shown, Tested as antibody purified from AlivaMab Mouse hybridoma supernatant (captured by anti-mouse IgG Fc)) VH: EVQLVESGGDLVKPGGSLRLSCAASGFSFSNAWMSWVRQAPGKGLEWVGRVESKTDGGTTDYAAPVKDRFTISRDDSKYTLYLQMNSLKTEDSAVYYCTIGGGFGLELYGFFDYWGQGTLVTVSS VL: DIQMTQSPSTLSASVGDRVTITCRASQSISSWLAWYQQKPGKAPMLLIYKASSLESGVPSRFSGSGSGTEFTLTISSLQPDDFATYYCLQYNSYYTFGQGTKLEIK"
< 0.001 nM,0.18,< 1e-07 s⁻¹,80000 M⁻¹ s⁻¹,"75110_03I23A (antibody, V domains shown, Tested as antibody purified from AlivaMab Mouse hybridoma supernatant (captured by anti-mouse IgG Fc)) VH: QVQLQESGPGLVKPSETLSLTCTASGGSITSYYWNWIRQPAGKGLEWIGRIYTSGSTNYNPSLKSRVTMSVDTSKNQFSLKLSSVTAADTAVYYCARDPGYSDAFNIWGQGTMVTVSS VL: not shown"
0.25 nM,0.15,1.8e-05 s⁻¹,73000 M⁻¹ s⁻¹,"75110_04H17A (antibody, V domains shown, Tested as antibody purified from AlivaMab Mouse hybridoma supernatant (captured by anti-mouse IgG Fc)) VH: QVQLQESGPGLVKPSETLSLTCTVSGGSISTYYWSWIRQSAGKGLEWIGRIYTSERPNYNPSLKSRVTMSVDTSKNQFSLKLNSVSAADTAVYYCARELERPYYYGMDVWGQGTTVTVSS VL: DVQMTQSPSSLSASVGGRVTITCQASQDISNYLNWYQQKPGKAPKLLIYYASNLETGVPSRFSGSGSGTDFTFTISSLQPEDFATYYCQQYDNLPLTFGGGTKVEIK"
